Assay results as given in patent publication US20230212549A1 (3B PHARMACEUTICALS, published 2023).
Where “and” joins values, the source holds several entries; their conditions need not be identical. Identical values can stand only once. Numbered stars: 1 amine (or outer) side, 2 acyl side, 3 side chain; on linkers, the order of the positions; unused ones are H or OH. Bridge positions count the residues as written; N and C are the ends. Square brackets hold non-standard residues; d marks the D form. Primed or numbered codes have the meaning given here. * marks the point of attachment. tMeBn(DOTA-PP) = 1,3,5-trimethylbenzylidene, two thioethers to Cys, third CH2 bound to one N of piperazine whose other N bears DOTA, O=C(O)CN1CCN(CC(=O)O)CCN(CC(=O)N2CCN(Cc3cc(C[*:1])cc(C[*:2])c3)CC2)CCN(CC(=O)O)CC1; Ttds″ = 1,13-diamino-4,7,10-trioxatridecan-succinamic acid spacer, O=C(CCC(=O)[*:2])NCCCOCCOCCOCCCN[*:1]; TBMB(SCH2CH2NH-DOTA) = O=C(O)CN1CCN(CC(=O)O)CCN(CC(=O)NCCSCc2cc(C[*:1])cc(C[*:2])c2)CCN(CC(=O)O)CC1; DOTA = O=C(O)CN1CCN(CC(=O)O)CCN(CC(=O)*)CCN(CC(=O)O)CC1; mXylylene = c1cc(C[*:1])cc(C[*:2])c1; Hexanoyl = CCCCCC(=O)*; NH(CH2)5NH2 = NCCCCCN*; GABA = NCCCC(=O)O; βAla = NCCC(=O)O

B1: Hex-[Cys(3MeBn)-Pro-Pro-Thr-Glu-Phe-Cys]-Asp-Gab-Arg-NH2 (peptide)
peptide: Hexanoyl-CPPTEFCD[GABA]R-NH2
modifications: linker 1-7 via mXylylene
SMILES: CCCCCC(=O)N[C@H]1CSCc2cccc(c2)CSC[C@@H](C(=O)N[C@@H](CC(=O)O)C(=O)NCCCC(=O)N[C@@H](CCCNC(=N)N)C(N)=O)NC(=O)[C@H](Cc2ccccc2)NC(=O)[C@H](CCC(=O)O)NC(=O)[C@H]([C@@H](C)O)NC(=O)[C@@H]2CCCN2C(=O)[C@@H]2CCCN2C1=O
notes: also called 3BP-3300
B2: Hex-[Cys(3MeBn)-Pro-Pro-Thr-Gln-Phe-Cys]-Asp-Ttds-Lys(DOTA)-NH2 (peptide)
peptide: Hexanoyl-CPPTQFCD[Ttds″]K(DOTA)-NH2
modifications: linker 1-7 via mXylylene
SMILES: CCCCCC(=O)N[C@H]1CSCc2cccc(c2)CSC[C@@H](C(=O)N[C@@H](CC(=O)O)C(=O)NCCCOCCOCCOCCCNC(=O)CCC(=O)N[C@@H](CCCCNC(=O)CN2CCN(CC(=O)O)CCN(CC(=O)O)CCN(CC(=O)O)CC2)C(N)=O)NC(=O)[C@H](Cc2ccccc2)NC(=O)[C@H](CCC(N)=O)NC(=O)[C@H]([C@@H](C)O)NC(=O)[C@@H]2CCCN2C(=O)[C@@H]2CCCN2C1=O
notes: also called 3BP-3395
B3: Hex-[Cys(3MeBn)-Pro-Pro-Thr-Glu-Phe-Cys]-Asp-Ttds-Lys(DOTA)-NH2 (peptide)
peptide: Hexanoyl-CPPTEFCD[Ttds″]K(DOTA)-NH2
modifications: linker 1-7 via mXylylene
SMILES: CCCCCC(=O)N[C@H]1CSCc2cccc(c2)CSC[C@@H](C(=O)N[C@@H](CC(=O)O)C(=O)NCCCOCCOCCOCCCNC(=O)CCC(=O)N[C@@H](CCCCNC(=O)CN2CCN(CC(=O)O)CCN(CC(=O)O)CCN(CC(=O)O)CC2)C(N)=O)NC(=O)[C@H](Cc2ccccc2)NC(=O)[C@H](CCC(=O)O)NC(=O)[C@H]([C@@H](C)O)NC(=O)[C@@H]2CCCN2C(=O)[C@@H]2CCCN2C1=O
notes: also called 3BP-3396
B4: Hex-[Cys(tMeBn(DOTA-PP))-Pro-Pro-Thr-Gln-Phe-Cys]-Asp-NH2 (peptide)
peptide: Hexanoyl-CPPTQFCD-NH2
modifications: linker 1-7 via tMeBn(DOTA-PP)
SMILES: CCCCCC(=O)N[C@H]1CSCc2cc(cc(CN3CCN(C(=O)CN4CCN(CC(=O)O)CCN(CC(=O)O)CCN(CC(=O)O)CC4)CC3)c2)CSC[C@@H](C(=O)N[C@@H](CC(=O)O)C(N)=O)NC(=O)[C@H](Cc2ccccc2)NC(=O)[C@H](CCC(N)=O)NC(=O)[C@H]([C@@H](C)O)NC(=O)[C@@H]2CCCN2C(=O)[C@@H]2CCCN2C1=O
B5: H-met-[Cys(3MeBn)-Pro-Pro-Thr-Glu-Phe-Cys]-Asp-His-Phe-Arg-Asp-NH2 (peptide)
peptide: H-[dM]CPPTEFCDHFRD-NH2
modifications: linker 2-8 via mXylylene
SMILES: CSCC[C@@H](N)C(=O)N[C@H]1CSCc2cccc(c2)CSC[C@@H](C(=O)N[C@@H](CC(=O)O)C(=O)N[C@@H](Cc2c[nH]cn2)C(=O)N[C@@H](Cc2ccccc2)C(=O)N[C@@H](CCCNC(=N)N)C(=O)N[C@@H](CC(=O)O)C(N)=O)NC(=O)[C@H](Cc2ccccc2)NC(=O)[C@H](CCC(=O)O)NC(=O)[C@H]([C@@H](C)O)NC(=O)[C@@H]2CCCN2C(=O)[C@@H]2CCCN2C1=O
notes: also called 3BP-2976
B6: Ac-Met-[Cys(3MeBn)-Pro-Pro-Thr-Glu-Phe-Cys]-Asp-His-Phe-Arg-Asp-NH2 (peptide)
peptide: Ac-MCPPTEFCDHFRD-NH2
modifications: linker 2-8 via mXylylene
SMILES: CSCC[C@H](NC(C)=O)C(=O)N[C@H]1CSCc2cccc(c2)CSC[C@@H](C(=O)N[C@@H](CC(=O)O)C(=O)N[C@@H](Cc2c[nH]cn2)C(=O)N[C@@H](Cc2ccccc2)C(=O)N[C@@H](CCCNC(=N)N)C(=O)N[C@@H](CC(=O)O)C(N)=O)NC(=O)[C@H](Cc2ccccc2)NC(=O)[C@H](CCC(=O)O)NC(=O)[C@H]([C@@H](C)O)NC(=O)[C@@H]2CCCN2C(=O)[C@@H]2CCCN2C1=O
notes: also called 3BP-2975
B7: Ac-Met-[Cys(3MeBn)-Pro-Pro-Thr-Glu-Phe-Cys]-Asp-His-Ala-Arg-Asp-NH2 (peptide)
peptide: Ac-MCPPTEFCDHARD-NH2
modifications: linker 2-8 via mXylylene
SMILES: CSCC[C@H](NC(C)=O)C(=O)N[C@H]1CSCc2cccc(c2)CSC[C@@H](C(=O)N[C@@H](CC(=O)O)C(=O)N[C@@H](Cc2c[nH]cn2)C(=O)N[C@@H](C)C(=O)N[C@@H](CCCNC(=N)N)C(=O)N[C@@H](CC(=O)O)C(N)=O)NC(=O)[C@H](Cc2ccccc2)NC(=O)[C@H](CCC(=O)O)NC(=O)[C@H]([C@@H](C)O)NC(=O)[C@@H]2CCCN2C(=O)[C@@H]2CCCN2C1=O
notes: also called 3BP-3196
B8: Ac-Met-[Cys(3MeBn)-Pro-Pro-Thr-Glu-Phe-Cys]-Asp-Ala-Phe-Arg-Asp-NH2 (peptide)
peptide: Ac-MCPPTEFCDAFRD-NH2
modifications: linker 2-8 via mXylylene
SMILES: CSCC[C@H](NC(C)=O)C(=O)N[C@H]1CSCc2cccc(c2)CSC[C@@H](C(=O)N[C@@H](CC(=O)O)C(=O)N[C@@H](C)C(=O)N[C@@H](Cc2ccccc2)C(=O)N[C@@H](CCCNC(=N)N)C(=O)N[C@@H](CC(=O)O)C(N)=O)NC(=O)[C@H](Cc2ccccc2)NC(=O)[C@H](CCC(=O)O)NC(=O)[C@H]([C@@H](C)O)NC(=O)[C@@H]2CCCN2C(=O)[C@@H]2CCCN2C1=O
notes: also called 3BP-3195
B9: Ac-Met-[Cys(3MeBn)-Pro-Pro-Thr-Glu-Phe-Cys]-Asp-His-Phe-Arg-Ala-NH2 (peptide)
peptide: Ac-MCPPTEFCDHFRA-NH2
modifications: linker 2-8 via mXylylene
SMILES: CSCC[C@H](NC(C)=O)C(=O)N[C@H]1CSCc2cccc(c2)CSC[C@@H](C(=O)N[C@@H](CC(=O)O)C(=O)N[C@@H](Cc2c[nH]cn2)C(=O)N[C@@H](Cc2ccccc2)C(=O)N[C@@H](CCCNC(=N)N)C(=O)N[C@@H](C)C(N)=O)NC(=O)[C@H](Cc2ccccc2)NC(=O)[C@H](CCC(=O)O)NC(=O)[C@H]([C@@H](C)O)NC(=O)[C@@H]2CCCN2C(=O)[C@@H]2CCCN2C1=O
notes: also called 3BP-3198
B10: Ac-Met-[Cys(3MeBn)-Gly-Pro-Thr-Glu-Phe-Cys]-Asp-His-Phe-Arg-Asp-NH2 (peptide)
peptide: Ac-MCGPTEFCDHFRD-NH2
modifications: linker 2-8 via mXylylene
SMILES: CSCC[C@H](NC(C)=O)C(=O)N[C@H]1CSCc2cccc(c2)CSC[C@@H](C(=O)N[C@@H](CC(=O)O)C(=O)N[C@@H](Cc2c[nH]cn2)C(=O)N[C@@H](Cc2ccccc2)C(=O)N[C@@H](CCCNC(=N)N)C(=O)N[C@@H](CC(=O)O)C(N)=O)NC(=O)[C@H](Cc2ccccc2)NC(=O)[C@H](CCC(=O)O)NC(=O)[C@H]([C@@H](C)O)NC(=O)[C@@H]2CCCN2C(=O)CNC1=O
notes: also called 3BP-3214
B11: Hex-[Cys(3MeBn)-Pro-Pro-Thr-Glu-Phe-Cys]-Asp-His-Phe-Arg-Asp-NH2 (peptide)
peptide: Hexanoyl-CPPTEFCDHFRD-NH2
modifications: linker 1-7 via mXylylene
SMILES: CCCCCC(=O)N[C@H]1CSCc2cccc(c2)CSC[C@@H](C(=O)N[C@@H](CC(=O)O)C(=O)N[C@@H](Cc2c[nH]cn2)C(=O)N[C@@H](Cc2ccccc2)C(=O)N[C@@H](CCCNC(=N)N)C(=O)N[C@@H](CC(=O)O)C(N)=O)NC(=O)[C@H](Cc2ccccc2)NC(=O)[C@H](CCC(=O)O)NC(=O)[C@H]([C@@H](C)O)NC(=O)[C@@H]2CCCN2C(=O)[C@@H]2CCCN2C1=O
B12: Hex-[Cys(tMeBn(DOTA-AET))-Pro-Pro-Thr-Gln-Phe-Cys]-Gly-OH (peptide)
peptide: Hexanoyl-CPPTQFCG-OH
modifications: linker 1-7 via TBMB(SCH2CH2NH-DOTA)
SMILES: CCCCCC(=O)N[C@H]1CSCc2cc(CSCCNC(=O)CN3CCN(CC(=O)O)CCN(CC(=O)O)CCN(CC(=O)O)CC3)cc(c2)CSC[C@@H](C(=O)NCC(=O)O)NC(=O)[C@H](Cc2ccccc2)NC(=O)[C@H](CCC(N)=O)NC(=O)[C@H]([C@@H](C)O)NC(=O)[C@@H]2CCCN2C(=O)[C@@H]2CCCN2C1=O
notes: also called 3BP-3656
B13: Hex-[Cys(tMeBn(DOTA-AET))-Pro-Pro-Thr-Gln-Phe-Cys]-Ser-OH (peptide)
peptide: Hexanoyl-CPPTQFCS-OH
modifications: linker 1-7 via TBMB(SCH2CH2NH-DOTA)
SMILES: CCCCCC(=O)N[C@H]1CSCc2cc(CSCCNC(=O)CN3CCN(CC(=O)O)CCN(CC(=O)O)CCN(CC(=O)O)CC3)cc(c2)CSC[C@@H](C(=O)N[C@@H](CO)C(=O)O)NC(=O)[C@H](Cc2ccccc2)NC(=O)[C@H](CCC(N)=O)NC(=O)[C@H]([C@@H](C)O)NC(=O)[C@@H]2CCCN2C(=O)[C@@H]2CCCN2C1=O
notes: also called 3BP-3658
B14: Hex-[Cys(3MeBn)-Pro-Pro-Thr-Glu-Phe-Cys]-Bal-OH (peptide)
peptide: Hexanoyl-CPPTEFC[βAla]-OH
modifications: linker 1-7 via mXylylene
SMILES: CCCCCC(=O)N[C@H]1CSCc2cccc(c2)CSC[C@@H](C(=O)NCCC(=O)O)NC(=O)[C@H](Cc2ccccc2)NC(=O)[C@H](CCC(=O)O)NC(=O)[C@H]([C@@H](C)O)NC(=O)[C@@H]2CCCN2C(=O)[C@@H]2CCCN2C1=O
notes: also called 3BP-3371

What was measured:
[1] = target: Recombinant human FAP (R&D systems, #3715-SE) (human, UniProt Q12884 26-760); assay: cell-based or functional assay
[2] = target: T1, fibroblast activation protein (FAP) on FAP-expressing human WI-38 fibroblasts (human, UniProt Q12884 1-760); assay: competitive FACS, WI-38 cells, vs Cy5 tracer m3; A = pIC50 >8.0
T1 construct: also called human FAP

Binder	pIC50 Category (Activity) [1]	pIC50 Category (FACS) [2]
B1	> 8 pIC50	> 8 pIC50
B2	> 8 pIC50	> 8 pIC50
B3	> 8 pIC50	> 8 pIC50
B4	> 8 pIC50	> 8 pIC50
B5	> 8 pIC50	> 8 pIC50
B6	> 8 pIC50	> 8 pIC50
B7	> 8 pIC50	> 8 pIC50
B8	7.1 pIC50 and 8 pIC50	> 8 pIC50
B9	> 8 pIC50	> 8 pIC50
B10	> 8 pIC50	> 8 pIC50
B11	> 8 pIC50	> 8 pIC50
Hexanoyl-CPPTQFCD-{NH(CH2)5NH2-DOTA′} (linker 1-7 via mXylylene, also called 3BP-3403) [Hex-[Cys(3MeBn)-Pro-Pro-Thr-Gln-Phe-Cys]-Asp-Ape-NH-DOTA′]	> 8 pIC50	> 8 pIC50
B12	> 8 pIC50	> 8 pIC50
B13	> 8 pIC50	> 8 pIC50
Hexanoyl-CPPTQFCD[Ttds″]-{NH(CH2)5NH2-DOTA′} (linker 1-7 via mXylylene, also called 3BP-3404) [Hex-[Cys(3MeBn)-Pro-Pro-Thr-Gln-Phe-Cys]-Asp-Ttds-Ape-NH-DOTA′]	> 8 pIC50	> 8 pIC50
B14	7.1 pIC50 and 8 pIC50	> 8 pIC50
